Measured values from the supplement of paper PMC9112550, “Optimization of the antimicrobial peptide Bac7 by deep mutational scanning” (BMC Biology, 2022).

Tested on: Escherichia coli TOP10
Test: shrunken log2 fold change of peptide-encoding DNA abundance (4.5 h post-induction vs induction); higher = less antimicrobial activity (less host growth inhibition)
Settings: time post-induction: 4.5 h; library: site-saturation at positions 5, 18, 19, 20
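Note: peptides expressed intracellularly from a pBAD plasmid library in pooled LB shake-flask culture, induced with 0.3% L-arabinose, DNA abundance read by NGS, three biological replicates, DESeq2 with apeglm shrinkage.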

Row | Sequence | shrunken log2 fold change
1 | RRIRERPPRLPRPRPRPDFEPRP | -0.117
2 | RRIRERPPRLPRPRPRPDGFPRP | -0.134
3 | RRIRERPPRLPRPRPRPDGNPRP | -0.032
4 | RRIRERPPRLPRPRPRPDHNPRP | -0.897
5 | RRIRERPPRLPRPRPRPDHTPRP | -0.0309
6 | RRIRERPPRLPRPRPRPDIRPRP | -0.0427
7 | RRIRERPPRLPRPRPRPDIYPRP | 0.137
8 | RRIRERPPRLPRPRPRPDKPPRP | -0.051
9 | RRIRERPPRLPRPRPRPDLPPRP | -0.156
10 | RRIRERPPRLPRPRPRPDLTPRP | 0.0375
11 | RRIRERPPRLPRPRPRPDLYPRP | -0.0156
12 | RRIRERPPRLPRPRPRPDNCPRP | -0.0268
13 | RRIRERPPRLPRPRPRPDQEPRP | -0.0156
14 | RRIRERPPRLPRPRPRPDQPPRP | 0.0454
15 | RRIRERPPRLPRPRPRPDRHPRP | -0.0302
16 | RRIRERPPRLPRPRPRPDSCPRP | -0.149
17 | RRIRERPPRLPRPRPRPDSLPRP | -0.391
18 | RRIRERPPRLPRPRPRPDSQPRP | -0.0262
19 | RRIRERPPRLPRPRPRPDSVPRP | -0.17
20 | RRIRERPPRLPRPRPRPDWNPRP | -0.631
21 | RRIRERPPRLPRPRPRPDWYPRP | -0.297
22 | RRIRERPPRLPRPRPRPEAFPRP | 0.0868
23 | RRIRERPPRLPRPRPRPEAKPRP | 0.0152
24 | RRIRERPPRLPRPRPRPECHPRP | 0.0213
25 | RRIRERPPRLPRPRPRPEDIPRP | -0.00136

Row | Sequence | shrunken log2 fold change
26 | RRIRERPPRLPRPRPRPEDRPRP | -0.0523
27 | RRIRERPPRLPRPRPRPEEQPRP | 0.221
28 | RRIRERPPRLPRPRPRPEETPRP | -0.0248
29 | RRIRERPPRLPRPRPRPEFSPRP | -0.178
30 | RRIRERPPRLPRPRPRPEFTPRP | 0.0663
31 | RRIRERPPRLPRPRPRPEFYPRP | -0.377
32 | RRIRERPPRLPRPRPRPEGWPRP | 0.668
33 | RRIRERPPRLPRPRPRPEMGPRP | -0.116
34 | RRIRERPPRLPRPRPRPENHPRP | -0.455
35 | RRIRERPPRLPRPRPRPENNPRP | -0.27
36 | RRIRERPPRLPRPRPRPEPWPRP | 0.0721
37 | RRIRERPPRLPRPRPRPEQEPRP | -0.0107
38 | RRIRERPPRLPRPRPRPEQGPRP | 0.0117
39 | RRIRERPPRLPRPRPRPEQPPRP | -0.064
40 | RRIRERPPRLPRPRPRPEQRPRP | 0.32
41 | RRIRERPPRLPRPRPRPEQWPRP | 0.127
42 | RRIRERPPRLPRPRPRPETQPRP | 0.0866
43 | RRIRERPPRLPRPRPRPETRPRP | -0.0227
44 | RRIRERPPRLPRPRPRPETSPRP | 0.122
45 | RRIRERPPRLPRPRPRPEVCPRP | -0.0484
46 | RRIRERPPRLPRPRPRPEWEPRP | -0.0115
47 | RRIRERPPRLPRPRPRPEWQPRP | -0.0536
48 | RRIRERPPRLPRPRPRPEYAPRP | -0.143
49 | RRIRERPPRLPRPRPRPEYCPRP | 0.0191
50 | RRIRERPPRLPRPRPRPEYDPRP | -0.00663

Row | Sequence | shrunken log2 fold change
51 | RRIRERPPRLPRPRPRPFELPRP | -0.0731
52 | RRIRERPPRLPRPRPRPFGYPRP | -0.0787
53 | RRIRERPPRLPRPRPRPFHDPRP | -0.291
54 | RRIRERPPRLPRPRPRPFHEPRP | -0.0823
55 | RRIRERPPRLPRPRPRPFHRPRP | -0.182
56 | RRIRERPPRLPRPRPRPFIHPRP | -1.12
57 | RRIRERPPRLPRPRPRPFINPRP | -0.991
58 | RRIRERPPRLPRPRPRPFLPPRP | -0.701
59 | RRIRERPPRLPRPRPRPFLYPRP | -0.761
60 | RRIRERPPRLPRPRPRPFMHPRP | -0.121
61 | RRIRERPPRLPRPRPRPFMNPRP | -0.00101
62 | RRIRERPPRLPRPRPRPFQQPRP | -0.0184
63 | RRIRERPPRLPRPRPRPFQSPRP | -0.00776
64 | RRIRERPPRLPRPRPRPFSDPRP | -0.0836
65 | RRIRERPPRLPRPRPRPFSWPRP | 0.0616
66 | RRIRERPPRLPRPRPRPFWHPRP | -0.0333
67 | RRIRERPPRLPRPRPRPFYHPRP | -1.01
68 | RRIRERPPRLPRPRPRPGDCPRP | -0.0777
69 | RRIRERPPRLPRPRPRPGDFPRP | -0.107
70 | RRIRERPPRLPRPRPRPGESPRP | -0.0304
71 | RRIRERPPRLPRPRPRPGIDPRP | -0.14
72 | RRIRERPPRLPRPRPRPGITPRP | -0.648
73 | RRIRERPPRLPRPRPRPGIYPRP | -0.91
74 | RRIRERPPRLPRPRPRPGKHPRP | -0.324
75 | RRIRERPPRLPRPRPRPGKVPRP | 0.206

Row | Sequence | shrunken log2 fold change
76 | RRIRERPPRLPRPRPRPGLHPRP | -0.124
77 | RRIRERPPRLPRPRPRPGLKPRP | 0.131
78 | RRIRERPPRLPRPRPRPGLWPRP | 0.168
79 | RRIRERPPRLPRPRPRPGMDPRP | -0.696
80 | RRIRERPPRLPRPRPRPGMGPRP | -0.0461
81 | RRIRERPPRLPRPRPRPGNAPRP | -0.0685
82 | RRIRERPPRLPRPRPRPGNEPRP | -0.0966
83 | RRIRERPPRLPRPRPRPGRMPRP | 0.0231
84 | RRIRERPPRLPRPRPRPGRWPRP | 0.796
85 | RRIRERPPRLPRPRPRPGTRPRP | -0.0692
86 | RRIRERPPRLPRPRPRPGVAPRP | 0.146
87 | RRIRERPPRLPRPRPRPGVFPRP | 0.248
88 | RRIRERPPRLPRPRPRPGVGPRP | 0.428
89 | RRIRERPPRLPRPRPRPGVQPRP | -0.351
90 | RRIRERPPRLPRPRPRPHAPPRP | -0.0944
91 | RRIRERPPRLPRPRPRPHDGPRP | -0.532
92 | RRIRERPPRLPRPRPRPHGYPRP | 0.0062
93 | RRIRERPPRLPRPRPRPHHHPRP | -0.58
94 | RRIRERPPRLPRPRPRPHHSPRP | -0.603
95 | RRIRERPPRLPRPRPRPHIVPRP | -0.0314
96 | RRIRERPPRLPRPRPRPHIWPRP | 0.00885
97 | RRIRERPPRLPRPRPRPHLCPRP | -0.101
98 | RRIRERPPRLPRPRPRPHMMPRP | -1.14
99 | RRIRERPPRLPRPRPRPHNMPRP | -0.51
100 | RRIRERPPRLPRPRPRPHNNPRP | 0.486

Row | Sequence | shrunken log2 fold change
101 | RRIRERPPRLPRPRPRPHPNPRP | -0.0522
102 | RRIRERPPRLPRPRPRPHPWPRP | -0.392
103 | RRIRERPPRLPRPRPRPHQAPRP | 0.0779
104 | RRIRERPPRLPRPRPRPHRAPRP | -0.0349
105 | RRIRERPPRLPRPRPRPHRIPRP | -0.229
106 | RRIRERPPRLPRPRPRPHRQPRP | -0.0179
107 | RRIRERPPRLPRPRPRPHSPPRP | -0.372
108 | RRIRERPPRLPRPRPRPHSWPRP | -0.183
109 | RRIRERPPRLPRPRPRPHTCPRP | -0.0792
110 | RRIRERPPRLPRPRPRPHTHPRP | -1.01
111 | RRIRERPPRLPRPRPRPHVCPRP | -0.0153
112 | RRIRERPPRLPRPRPRPHVHPRP | -0.315
113 | RRIRERPPRLPRPRPRPHVQPRP | -0.434
114 | RRIRERPPRLPRPRPRPHVYPRP | -0.764
115 | RRIRERPPRLPRPRPRPHWWPRP | 0.193
116 | RRIRERPPRLPRPRPRPHYMPRP | -0.0919
117 | RRIRERPPRLPRPRPRPIANPRP | 0.158
118 | RRIRERPPRLPRPRPRPICKPRP | -0.215
119 | RRIRERPPRLPRPRPRPICYPRP | -0.4
120 | RRIRERPPRLPRPRPRPIDLPRP | -0.219
121 | RRIRERPPRLPRPRPRPIEGPRP | 0.0039
122 | RRIRERPPRLPRPRPRPIERPRP | 0.00274
123 | RRIRERPPRLPRPRPRPIGSPRP | -0.587
124 | RRIRERPPRLPRPRPRPIGVPRP | 0.0489
125 | RRIRERPPRLPRPRPRPIHLPRP | -0.0986

Row | Sequence | shrunken log2 fold change
126 | RRIRERPPRLPRPRPRPIHNPRP | -0.659
127 | RRIRERPPRLPRPRPRPIMAPRP | -1.15
128 | RRIRERPPRLPRPRPRPIMMPRP | -0.689
129 | RRIRERPPRLPRPRPRPINEPRP | -0.281
130 | RRIRERPPRLPRPRPRPIPCPRP | -0.341
131 | RRIRERPPRLPRPRPRPIPYPRP | -0.00829
132 | RRIRERPPRLPRPRPRPIRTPRP | -0.577
133 | RRIRERPPRLPRPRPRPISEPRP | -0.0562
134 | RRIRERPPRLPRPRPRPIVSPRP | 0.0707
135 | RRIRERPPRLPRPRPRPIVVPRP | -0.29
136 | RRIRERPPRLPRPRPRPIYKPRP | -0.305
137 | RRIRERPPRLPRPRPRPKAGPRP | 0.174
138 | RRIRERPPRLPRPRPRPKALPRP | -0.113
139 | RRIRERPPRLPRPRPRPKAYPRP | -0.00666
140 | RRIRERPPRLPRPRPRPKDWPRP | 0.111
141 | RRIRERPPRLPRPRPRPKFGPRP | 0.37
142 | RRIRERPPRLPRPRPRPKFLPRP | -0.219
143 | RRIRERPPRLPRPRPRPKHIPRP | -0.766
144 | RRIRERPPRLPRPRPRPKHRPRP | -0.457
145 | RRIRERPPRLPRPRPRPKHYPRP | -0.373
146 | RRIRERPPRLPRPRPRPKLAPRP | 0.00329
147 | RRIRERPPRLPRPRPRPKLPPRP | 0.0983
148 | RRIRERPPRLPRPRPRPKMPPRP | -0.0401
149 | RRIRERPPRLPRPRPRPKMYPRP | -0.898
150 | RRIRERPPRLPRPRPRPKNAPRP | -0.352
